Laboratory results: a protein production outcome set (Wang et al. 2014)

Test: label from the status in PepcDB records

| Sequence | protein production |
| --- | --- |
| MDFLTKLAIAFLIGIMVGVEREHRGLEHEIFAGVRSYSITCITGMLVALASESIGTGFVYVSTLFFAAMCSIITYSKIFLFKRIGVTSPITLFFIFVMGVLVGYDYGLFAIVSSIVVAFLLIQKQPLHQFAGNLTKEELYNAIQFLAVAFILYPVMPEKQFFGLLNLRYAILIVILVSLISFSSYVLLRKFGTKRGLYYSGFLGGFINSEATTGALAGLSKKAEEMAAPVITGILLCNISMLIRNLVLAFIVDPTGRTTMLMLLPQLVLIIVSIGMAYRHSKKVCPIGGGELKIQSPFSLGQAFKFGIAFTLILVIGNFAYNAAGTTGIYLTALGALVSSSGVIVSVTLLAVSGNISYEVAANTAVIASLVSTVNKILLSKISGSSSLFSLAIKDFGIIAATGTLALVILNFL | failed |
| MTTVAVSSLPQGTSVTLRNVTKSFGTTKVLNGLDLNIHSGELVALLGPSGCGKSTLLRIIAGFEAADQGSVLLDDVDVSGVPTNRRDIGLVFQAYSLFPHLNAVENVMYGLSIRHVAKTEAKSSAVELLASVGLADYADRYPAQLSGGQQQRVALARALATKPRVLLLDEPLSALDAKVRVQLRDEIRALQLETHTTTIMVTHDQEEALVMADRIAVMYNGRFEQVGTPAEIYHSPATAFVAGFVGSMNVLPGVLSTDGTAQTIGCRVPVHAAAGAATLNPGPVDVFVRPEELRLQIANDDLNDHDAVLGTVTSTVLRGAFTSVMVAMGDGLHLRVDLPSKDAQLFTPGCSVMVRIADEPMLCTARRVECVA | failed |
| MADSSRADFWEQRYREGVTPWEGGQLPPRARAFFAAQRPLRVLMPGCGSAADLPPLLAMGHDVLAVDFSEAAIELAARQWPEAAGRLLLADFFQLQMPAFDCLFERAFLCALPVGMRSQYAERVAALIAPGGALAGVFFVADTERGPPFGMQAEALRELLSPWFELEEDLALDESVAVFRNRERWMVWRRRGFDLGQVSEHESTGNCGAHRKE | failed |
| MNNVSTRAPVRGTKTSLTLPNILTYARIAAIPVVVGCIFAQSILGGPLALRWVALAVFIAAAITDFLDGHFARIWDQQSAFGRMLDPIADKLLVASCLLMLAADSIIHGWTLWAAIVILCREILVSGLREYLAALRVSVPVTRLAKWKTTAQLVAIGFLLAGEAGDEVLPFTTEIGVSLLWLSALLTMYTGYDYFRAGIHHLIEEDQA | failed |
| MSEIEELVCIEASVTRKSTSNTVEIRESRRNKVTLGSSDSPAFPTPHLFLKNIVSFDEQSMYNLLYPRLQDPNLCSILSFKIAFEAKRVPGPLYISYDVTLTPQIFEEPDMETCGLCLLEEQHLFDMPNCAHVFHGDCIDKWLSTSNNCPLCGVEIMDDDE | failed |
| MMWEQFKKEKLRGYLEAKNQRKVDFDIVELLDLINSFDDFVTLSSCSGRIAVVDLEKPGDKASSLFLGKWHEGVEVSEVAEAALRSRKVAWLIQYPPIIHVACRNIGAAKLLMNAANTAGFRRSGVISLSNYVVEIASLERIELPVAEKGLMLVDDAYLSYVVRWANEKLLKGKEKLGRLQEALESLQRENAYCSD | not failed |
| MKRFILLSFVVLALGFYELSGGPDFDPEVARASIIDARQERELARKAALPGPVYVAAAPSAEPEVEDSVTRANLNLVSFASVVAEPEISTVTAPVAVARADTPETAPEITVKRLAAAQDEPLSLAALSPAQEPSRNVFAGSSIVASSSDINGEKNLRSVKGTRVNMRSGPGTQYDVVAQLTQSEEVEVLTDTGNGWVELRPLEGGPTGWVAEFLLTGG | failed |
| MKIAIIRKIPTRPEQISRPSHSARAGPETHCSMPCGFAASRKAGRIAVKETIKEIVMGMLVEGVWKDVWYDTKETKGHFKRSASQFRNWVTVDGAVGPSGEGGFEAEKDRYHLYVSFACPWAHRTLIFRKLKKLEDLISVSVVDPLMLENGWEFKPEGERTPGATQDHLFGSSTLWQVYTKADPTYSGRVTVPVLWDKKRGTIVSNESAEIIRMFNVAFNDLTGSDADYYPKALRAEIDALNDVIYDTVNNGVYKAGFATTQDAYQQNAVKVFETLDMLEDRLKDRRFLFGSEQTEADWRLFTTLVRFDPVYVGHFKCNIRRIHDYPHLTGYLRDLYQTPGVPDTVDMRHIKEHYYRSHRTINPTGIVPIGPELDLTMAHGREALS | failed |
| MVPEFIILGAAILLSICDLFFKLNHRYVALGAIAAIVLAIVSLITLYSEPAGDILNGSFVLDGFSKGFKTLLLGASALILCTAMSDDKKNPIEDKGEYYYLFLMALLGAMFMASSVDFITLFVGLELLSLSSYILVGIRKKSRASNEAAMKYVISGGIGTAITLFGMSYLYGITGSTNIVDMQKVLTGELASGIQLLLALAFLLLLVGLSFKIATVPFHMWAPDVYEGAATPVTAFLGTISKIAGFLLIIRLFLMIFASVLIQGDMQSLYGHMSIYIAVLASITMIVGNVVALKQYNIKRLFAYSGIAHAGYLLVPLVALSPFTMDSMWFYMLAYMLMNIGAFAIIHGLILQNNEENITIFTGLYKRSPFTAIMMTIFILSLAGIPGTAGFIGKINIFLGALHVEPAHYVLASIMMGTTVVSFVYYFRILQQMFFRTGETEERIRLPLNIKVVMSLCAISIVILGIMPMIGYNFFYEYFPLMKDFFFLGNVVQ | not failed |
| MYKGYKIGVAVPAYNEEKLIGETLKGIPPFVDRIYVVDDASKDNTSKVVEEMMRHDKRIVLIRHAKNKGVGGAIVSGWKKGLEEGMDILAVMAGDNQMDPRDLPALLDPIVEGKVDFTKGNRFLLSYDLKMSYWRRFGTFLLTILTKIASGYWHINDPQNGYVAIKADALRKIDLDKLDSGYFFENDLLIKASVANLRVVNVPVKIRYKIGEKSKIKYSKFIARTSWLLLRSFLWRIWVEYVKRRKFLGFLYLLGFTLIVTSFLIFLIYPTRLEIPLIVLLAGAAIFLGSCIKEKNLKQYLK | failed |
| MEIGRVVGNVWATRKDEKLNGQKFLIVKLLVSKDKEKEGLFVAADNAGAGIGDIVLITKGGAARQSIGNREVPIDAAIVGIVDSIDIEEDLEHHHHHH | not failed |
| MFDRLKNGEKIAPIVKEVESQITEVHKRADEVIESNQFRVLESFGKHKISDSHFIPTTGYGYDDIGRDTLEKVYADVFGAEAGLVRPQIISGTHAISTALFGILRPGDELLYITGKPYDTLEEIVGVRGKGVGSFKEYNIGYNAVPLTEGGLVDFEAVAAAIHSNTKMIGIQRSKGYATRPSFTISQIKEMIAFVKEIKPDVVVFVDNCYGEFIEEQEPCHVGADLMAGSLIKNPGGGIVKTGGYIVGKEQYVEACAYRLTSPGIGAEAGASLYSLQEMYQGFFLAPHVAGQALKGAIFTAAFLEKLGMNTSPAWNAPRTDLIQSVQFDDKDRMIAFCQAIQYASPINSHFTPYANYMPGYEDDVIMAAGTFIQGASIELSADGPIRPPYVAYVQGGLTYSHVKIAICSAIDELIEKNLLTISLEHHHHHH | not failed |
| MQGGSSGIGYGLKYQSRCISDVKADTDYTSFLTGTLSLKEENEVHLLRLSSGGSELICEGLFSHPNEIWDLASCPFDQRIFSTVFSTGESFGAAIWQIPELYGQLNSPQLERVASLDAHVGKINCVLWWPSGRCDKLISIDEQNIFLWSLDCSKKSAEVLSKDSAGMLHSLSGGAWDPHDVNAVAATGESSVQFWDLRTMKKVNSIEHAHVRGVDYNPKREHILVTAEDESGIHVWDLRKAKVPVQELPGHTHWTWAVRCNPEYDGLILSAGTDSVVNLWYASATSSDDKTSESPVESTRQRVNPLLNSYTDYEDSVYGLAWSSREPWVFASLSYDGRVIIESVKPFLPRI | failed |
| DRDQTLALMAQMTIPTLATWCAVYTIADQASEPYLSYVLHEDEDRIDGVKALLSKIPPPEPIPTPGARVWSAPAQAAHEAALRTSMRSLGLGEPATVSSGIGTTLATASAVGGETVVLPLVARNRVIGMLTLGKPSDEHFRQEILELAEDLSRRAALALDNARLYSERTAISQSLQRSLLPPDLPHI | failed |
| MIKHPLKILFMHGLDSSRESTKFHAIESTNKFCITIDYRNLSYNTVADFYQNTIETIQPDLLIGHNLGGYWALKLSSQYHLAAIVANPSLAPLFRDDYPSLTSKELDTDSPKIAYIELGDESLNMYDIQNVLEDYMIVDSIEGGHHRLENPSKLNILIDHIQSEYFSHTIR | failed |
| MNNGRRIGLIMIITGATLWGLSGPMIQWLFQHTNVSSIDFLTIRLLLAGIFILSFLLIKKQNIFQIWKHPRHSIQLIIFSILGMLGAQYAFIETVHISNAVTATLFQFLGPVFITIYVAFEQRKFPASMQLLAIITALTGTYFIITNGSIENIVLSKEAIIFGLLTAIGFAFYTLHPASLIKECGTTLVIGWGMLIGGIALLICNRSFGWHELSQTFTTKTFSMLILIIISGTLSFLLYIGSLKYLAATETSILSSIEPLVAAIVSIAWLNESFGAYQLLGGVCIVLSVIFLTMPQKENEPAFTSEQI | failed |
| MPERIIREDVKIGDGMMIDSDSQDDCVTKAVRTVEQKLTTEEHEIVMVYDYVSGSSGSSSTPSFTLTPYSPISYESDQEDYEDPPISPYISEAVVHSPDSTFALLWEGTSPILHFAADMRADAIPSVGDGTTSGIHIPYCFIYGEDGRYPQDCRF | failed |
| MFVIGIPTLNEADNISRLVKQIDEYAVNLGKEIIIINSDSKSTDGTPQIFLETKTYNTKVSIVSEAKGKGYNVRNIFEYAINHVPNFSGLILIDGDVVSMKKMWLEKMFIAIESGNDLIIPNYARKSFEGNATNHFIYPMLVKIFKRDMPYQCISGDFGFSRGLIKDLTLKCNWHKYTLGYGIDIFLTLTAILKSYKIKEIDLQSKIHKKSFEKIEKIFLEVSQSFFETINDNSLNQDKLRLNINFESHSRQFIKSSDILSSNDIENLKLRALFLLQEEKQYLHGLSEVEWDGILSNTINNIYRYSSEEHSLYLLPLYLLRVYNYLKYN | failed |
| MNSESKLSQKANSSFTMDDFAKALENHDYQFQKGQVVYGKVFQLDPDGAYVDIGGKSSAYIPRDEASLRAVNDLAAVLPLHEELEFIIIREQDAEGQVTLSRRQLEINHIWEKLAQMKENSQPVDVKVTGVNKGGVTVDVQSLRGFIPRSHLTERDNLEALKGHTLTAGFLEVDRNNKKLVLSQRLVTRSSNFNQLEIGQLVEGKITGIKPFGVFVDLNGLSALLHIKQVSQKFIESLEKVFQPGQTIKAIVIDLDQGKGRVAISTRALENFPGEVLENFEEVMASAEARANRAANKMNEGGVGV | failed |
| MIGRHHPILAWAAVVAIGGGVIVLGGIGLPGAGDWLSDWTRAITSRQAGFHRELGQAVRDLAGEGGGAAGVGLLIASLGYGVFHALGPGHGKAVIGAYAATTATGFRRAALLSLAAALIQATTAVVLVDGAFLVMRGGAHWANRTAERWLEPASYAAILGLGLYLGGRGLLAIVRAGRPSPGGDHRPTHPGQARDEEACAHCGHAHGPTADQVAKATEWRSAAMIALAVGIRPCSGAILVLVVANGLGLWAAGILAAYVMALGTAATVALLAVGARASRLPIAGLARRLPLSPALLGGLAGTLAGLILVVLAGLLLRASLLAPVHPLLG | failed |
| MEYVYAALILNEADEEINEDNLTDVLDAAGVDVEESRVKALVAALEDVDIEEAVDQAAAAPVPASGGAAAPAEGDADEADEADEEAEEEAADDGGDDDDDEDDEASGEGLGELFGLEHHHHHH | not failed |
| MSVCTAHHPMTSPLPPFPLQQRLSRRTLLRFITHTAGIALLNPIGLAQSAPRAGKPPASSSDFISRRPPQAQRRFVSAAVEQQLIHIKAKIADPELAWLFENCYPNTLDTTVSTGTRNGKPDTFIITGDIQALWLRDSAAQVQAYVPLARHDPALRRLFHGLIQRHAACIRLDPYANAFLPDGVSHPLKWSVNDVTQMQPGIGERKWEIDSLCYPIRLAHAYWRASDDIAPFDEDWRQAMHIVLRTFGEQQRLQTPGPYTFQRPALRATETLMLEGYGAPTRPNGMLHSMFRPSDDACTYPLSVPENLFAVITLRQLAAMSEAIHHDAAFASQCRSLAHEIAQATQQFGLMHDADNHPFWAYEVDGYGNQLFMDDANAPSLLSLAYLGCCTSTDPVFLRTRDLAWSARNPYFCQGRAAVGVGSPHTGRHTIWPMSLIHYALSSHDDTQIQHCLHWLKTTHAGTGFMHEAFHQDDPSTFTRSWFAWANSLFGELIVDLAQRKPHLLGVNRSAALLHG | failed |
